Reference: doi:10.64898/2025.12.01.691523

Molecular target: Anopheles culicifacies ferritin heavy chain homolog (AcFtnHCH), recombinant, refolded (Anopheles culicifacies)
Test: native gel or EMSA

## Anopheles culicifacies ferritin heavy chain homolog (AcFtnHCH), recombinant, refolded (natural protein)
  stoichiometry N: 24
